Non-standard residues stand in square brackets, D forms with d. No end group written: not given here. pS = N[C@@H](COP(=O)(O)O)C(=O)O
Tests used:
β-TrCP = target: T1, β-TrCP (Homo sapiens, UniProt Q9Y297); test: Peptide competition of β-TrCP binding to pIκBα; details: FIG. 11B
T1 construct: made in house; host or cells: transfected 293 (293T) cells, immunoprecipitated through FLAG
Description: (§1) FIGS. 11A-11C are Western blots illustrating binding and ubiquitination specificity of E3 ubiquitin ligase family members. Within these figures, mβ-TrCP indicates mouse β-TrCP, hβ-TrCP indicates human β-TrCP, Δβ-TrCP indicates human β-TrCP with a deletion of the F box region and Slimb indicates the Drosophila Slimb protein. FIG. 11A illustrates selective binding to pIκBα. Proteins were immunoprecipitated through a FLAG epitope from transfected 293T cells, incubated with immunopurified IκBα/NF-κB complex, which had been treated (−/+IKK) as indicated and the bound material was analyzed by Western blotting with the indicated antibodies. […] FIG. 11C illustrates in vitro ubiquitination of pIκBα by the E3 family member proteins. Immunopurified FLAG-tagged proteins were incubated with ^35 S-labeled IκBα/NF-κB complexes, treated (−/+IKK) as indicated and subject to ubiquitination in the presence of ATPγS, ubiquitin. E1 and UBC5C. The IκBα substrate (composed of full-length and two degradation products), pIκBα-polyubiquitin conjugates and molecular size markers are indicated on the left.
The ability of these proteins to bind pIκBα specifically and assist in its ubiquitination was examined in a cell-free system. […] The bound material was analyzed by Western blotting with anti-IκBα and anti-FLAG antibodies. […]

[1] = system: ubiquitin-ligase activity associated with the pIκB-complex; test: Recruitment of ubiquitin-ligase activity from HeLa lysate to IKK2-EE phosphorylated IκBα/NF-κB complex; assay type: biochemical, human; details: peptide included in incubation with HeLa lysate, FIG. 6
Description: Following immunoprecipitation of ^35S-labeled IκBα/NF-κB complexes from a non-stimulated HeLa lysate previously incubated with recombinant ^35S-labeled IκBα, the complexes were phosphorylated by the recombinant IKK2-EE, eluted with the p65 cognate peptide and subjected to in vitro ubiquitination. After incubation with IKK2-EE, nearly all of the ^35S-IκB was phosphorylated. […] Therefore, IκB phosphorylation by IKK was not sufficient to promote its ubiquitination in the presence of E1 and E2. Conceivably, pIκBα ubiquitination requires an additional component of the HeLa lysate that was not co-immunopurified from non-stimulated cells.
To confirm this hypothesis, immuno-bound IκBα/NF-κB complexes were incubated with a non-stimulated HeLa lysate, either directly or following IKK2-EE phosphorylation, washed extensively with high-salt buffer and eluted with the p65 peptide. Indeed, incubation of the phosphorylated IκB complexes (FIG. 6 lane 3), but not of the non-phosphorylated ones (lane 1), with the HeLa lysate, provided the pIκB-ligase component(s) necessary for pIκBα conjugation. No signal was obtained when E1 or E2 were omitted from the reaction, confirming that the signal at the top of the gel represents poly-ubiquitin IκBα-conjugates (lanes 5, 6). […]

[2] = system: pIκBα-associated ubiquitin-ligase; test: In vitro ubiquitination of pIκBα/NF-κB complex immunopurified from TNFα-stimulated HeLa cells with E1 and UBC5C; assay type: biochemical, human; details: Bestatin 40 μg/ml, FIG. 5
Description: To further study the recruitment of components of the ubiquitin machinery by phosphorylated IκBα-complexes, pIκBα/NF-κB complexes were purified from proteasome inhibited, TNF-α stimulated HeLa cells, and their ubiquitination potential was evaluated. HeLa cells were pre-incubated with the proteasome inhibitor ALLN (150 μM) for 1 hour and stimulated for 10 minutes with TNFα. […]
The immunopurified fraction was supplemented with various components of the ubiquitin system and subjected to in vitro ubiquitination. […] The reaction mix was then boiled in SDS-buffer and the sample analyzed by SDS-PAGE (8.5%) and phospho-imaging.
To determine the source of the IκBα-conjugates, the ubiquitination reactions were performed in the presence of a pIκBα peptide (pp12; CDRHDS[PO3]GLDS[PO3]; SEQ ID NO:22) (lane 7) or a serine/glutamic-acid substituted IκBα peptide (p12S/E) (lane 8). Both peptides were synthetic, purchased from Alfa-Diagnostic, Inc., and then HPLC-purified, analyzed by mass spectrometry, verified for the predicted structure and proven to be over 85% pure. […]

[3] = system: pIκBα-associated proteins (p54, p58, p61, 64 kD); test: Association of 35S-labeled HeLa lysate proteins with immuno-bound pIκBα/NF-κB complex (SDS-PAGE, autoradiography); assay type: binding, human; details: peptide added to radiolabeled HeLa lysate, FIG. 7B
Description: HeLa extract (250 mg) was incubated with 250 μl anti-p65 immunobeads. Following four washes in buffer A (1M KCl, 0.5% NP40, 50 mM Tris buffer pH 7.6, 1 mM DTT) and one wash in buffer B (50 mM Tris buffer, pH 7.6, 1 mM DTT), half the beads were subject to in vitro phosphorylation with IKK and half underwent mock-phosphorylation. The beads were washed twice in buffer A and once in buffer B, agitated with 100 mg HeLa extract in the presence of 1 μm okadaic acid for 30 min at 25° C., washed four times with buffer A, once in buffer A and eluted with 1 mg/ml p65 peptide. A similar experiment was performed with 10 mg ^35 S-metabolically-labeled HeLa cell lysate (100 μCi/ml Met/Cys for 8 hours) and 25 μl p65-immunobeads. Eluate-fractions derived from both the hot and cold lysates were mixed, boiled in SDS-sample buffer and analyzed by 7.5% SDS-PAGE and autoradiography. Gel slices corresponding to the autoradiogram signals were excised and their protein-bands sequenced by mass-spectrometry, as described below.
To circumvent the possible masking of the putative pIκB-ubiquitin ligase, we replaced the ligase source with ^35S-biosynthetically-labeled HeLa lysate and traced the IκBα-associated proteins by SDS-PAGE analysis and autoradiography (FIG. 7B). In parallel, the various fractions were tested for their ubiquitin-ligase capacity. […]

pIκBα = target: T2, pIκBα (Homo sapiens, UniProt P25963); test: Binding of immobilized FLAG-tagged E3 family members to IκBα/NF-κB complex (Western blot); details: FIG. 11A
T2 construct: The IκBα/NF-κB complex was immunopurified from HeLa cells; endogenous in cells; host or cells: HeLa cells
Description: as §1
The ability of these proteins to bind pIκBα specifically and assist in its ubiquitination was examined in a cell-free system. The IκBα/NF-κB complex was immunopurified from HeLa cells and the immune complex was either phosphorylated with IKK2-EE or mock-phosphorylated as described above. It was then incubated with the following immobilized FLAG-tagged E3 family members immunoprecipitated from transfected 293 cells: mouse β-TrCP (mβ-TrCP), human β-TrCP (hβ-TrCP), human β-TrCP with a deletion of the F box region residues 122-168 (Δβ-TrCP) and the Drosophila Slimb protein. The bound material was analyzed by Western blotting with anti-IκBα and anti-FLAG antibodies. […] Furthermore, β-TrCP binding was abrogated by a peptide representing the pIκBα recognition motif (pp10; DRHDS(PO3)GLDS(PO3)M (SEQ ID NO:29); see FIG. 11B, lane 3), but not by the control peptide (lane 4), specifying the site of pIκBα recognition of the conserved DS(PO3)GLDS(PO3) (SEQ ID NO:30) sequence.

[4] = system: NF-κB activation in Jurkat cells; test: κB-dependent luciferase assay in P/I-stimulated Jurkat cells; assay type: cell-based; details: transient over-expression in stimulated Jurkat cells
From the text: FIGS. 12A and 12B illustrate inhibition of IκBα degradation and NF-κB activation by overexpression of Δβ-TrCP, a dominant negative molecule. FIG. 12A is a graph depicting the results of a κB-dependent luciferase assay in P/I-stimulated Jurkat cells transfected with κB-Luc reporter plasmid and the indicated expression vectors (i.e., from left to right, vector alone, vector encoding human β-TrCP, vector encoding human β-TrCP with a deletion of the F box region and vector encoding Drosophila Slimb protein). NF-κB activity is shown as relative (fold) luciferase activity, the non-stimulated empty FLAG vector being the reference (single-fold). FIG. 12B depicts the results of western blot analysis of IκBα of phorbol-ester and Ca^++ ionophore [P/I]-stimulated and non-stimulated Jurkat cells transfected with an empty FLAG vector or Δβ-TrCP. The post-stimulation interval (min) is indicated.

T2 sequence (P25963 whole entry): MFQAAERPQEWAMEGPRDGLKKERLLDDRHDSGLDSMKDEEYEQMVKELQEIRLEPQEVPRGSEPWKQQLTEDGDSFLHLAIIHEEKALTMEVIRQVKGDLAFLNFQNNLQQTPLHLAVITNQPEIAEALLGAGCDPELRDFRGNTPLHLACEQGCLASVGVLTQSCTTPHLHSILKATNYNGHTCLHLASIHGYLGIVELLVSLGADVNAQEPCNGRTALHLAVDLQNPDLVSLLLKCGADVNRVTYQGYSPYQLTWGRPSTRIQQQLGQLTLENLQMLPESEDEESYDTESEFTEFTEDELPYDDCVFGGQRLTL
T2 sequence (Q04206 whole entry partner): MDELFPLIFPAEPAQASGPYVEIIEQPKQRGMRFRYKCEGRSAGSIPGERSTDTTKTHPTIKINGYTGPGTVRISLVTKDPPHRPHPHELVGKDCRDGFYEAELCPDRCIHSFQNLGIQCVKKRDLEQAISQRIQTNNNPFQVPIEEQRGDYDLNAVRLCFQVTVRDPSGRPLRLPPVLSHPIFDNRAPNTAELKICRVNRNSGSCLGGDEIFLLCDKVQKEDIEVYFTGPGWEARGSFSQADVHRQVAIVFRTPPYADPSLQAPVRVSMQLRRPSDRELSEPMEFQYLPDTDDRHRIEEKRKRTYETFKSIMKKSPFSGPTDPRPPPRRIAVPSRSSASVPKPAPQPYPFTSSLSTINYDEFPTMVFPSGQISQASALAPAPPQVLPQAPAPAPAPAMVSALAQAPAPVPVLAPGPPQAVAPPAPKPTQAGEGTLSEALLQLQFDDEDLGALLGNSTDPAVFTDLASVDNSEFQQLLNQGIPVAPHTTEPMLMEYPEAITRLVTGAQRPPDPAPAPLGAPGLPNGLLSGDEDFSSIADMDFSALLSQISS
T1 sequence (P63208 whole entry partner, one chain of several): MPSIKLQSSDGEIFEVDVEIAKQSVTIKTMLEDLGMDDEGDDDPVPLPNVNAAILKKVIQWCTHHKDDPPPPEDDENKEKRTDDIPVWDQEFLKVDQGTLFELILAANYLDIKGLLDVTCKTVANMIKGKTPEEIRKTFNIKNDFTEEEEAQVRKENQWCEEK

pp10: peptide representing the pIκBα recognition motif, DRHDS(PO3)GLDS(PO3)M, SEQ ID NO:29 (DRHD[pS]GLD[pS]M; listed as Homo sapiens)
effect of peptide on β-TrCP-pIκBα binding (β-TrCP): abrogated

pp12: pIκBα peptide CDRHDS[PO3]GLDS[PO3]; SEQ ID NO:22 (CDRHD[pS]GLD[pS]; listed as Homo sapiens)
ubiquitin-ligase activity associated with the pIκB-complex [1]: abrogated
formation of polyubiquitin-IκBα conjugates [2]: abolished
association of distinctive 35S-protein bands with pIκBα [3]: three bands were eliminated

B1: hβ-TrCP: FLAG-tagged human β-TrCP, E3 family member (protein)
chain: MDPAEAVLQEKALKFMNSSEREDCNNGEPPRKIIPEKNSLRQTYNSCARLCLNQETVCLASTAMKTENCVAKTKLANGTSSMIVPKQRKLSASYEKEKELCVKYFEQWSESDQVEFVEHLISQMCHYQHGHINSYLKPMLQRDFITALPARGLDHIAENILSYLDAKSLCAAELVCKEWYRVTSDGMLWKKLIERMVRTDSLWRGLAERRGWGQYLFKNKPPDGNAPPNSFYRALYPKIIQDIETIESNWRCGRHSLQRIHCRSETSKGVYCLQYDDQKIVSGLRDNTIKIWDKNTLECKRILTGHTGSVLCLQYDERVIITGSSDSTVRVWDVNTGEMLNTLIHHCEAVLHLRFNNGMMVTCSKDRSIAVWDMASPTDITLRRVLVGHRAAVNVVDFDDKYIVSASGDRTIKVWNTSTCEFVRTLNGHKRGIACLQYRDRLVVSGSSDNTIRLWDIECGACLRVLEGHEELVRCIRFDNKRIVSGAYDGKIKVWDLVAALDPRAPAGTLCLRTLVEHSGRVFRLQFDEFQIVSSSHDDTILIWDFLNDPAAQAEPPRSPSRTYTYISR
modifications: left off: small tags and cut ends
notes: FLAG-tagged human β-TrCP, E3 family member
relative binding of IκBα / pIκBα (pIκBα; comparison between family members): far better than the highly homologous Drosophila protein
binding to IKK-phosphorylated versus mock-phosphorylated IκBα (pIκBα; FLAG-tagged protein from transfected 293 cells): exclusively bound IKK-phosphorylated, but not mock-phosphorylated, IκBα
activation of NF-κB [4]: not inhibitory

— patent publication US8263326B2, “Compounds and methods for modulating activation of NF-κB” (Signal Pharmaceuticals, LLC, priority 1998, dated 2012)
